Measured values reported in the DeepSol protein solubility set.

Assay: soluble on expression in E. coli; label from the status in PepcDB or PDB records

Sequence | soluble on expression in E. coli
MGSDKIHHHHHHMITYQEQWQKMQMALAIRRIPQAMLFSGSLHCGLIEFTNQVIKLLLCKIKQNEPCLTCMDCQMIERFEHPDVEWIKPERSGGIIKIDQIRGLQSTAFLTPQRTNHKLIIIESAESMNIAASNALLKILEEPAQHTIFILLAQQIGNIPPTVLSRCQITQFAVFDELPCNNLLALGEYYTQELNSTMVFKHSESILEGLIAIIERREHPCTLAAQWIQHELSAFLWFLYLIYSQLQYMHLFRVAYSGTLTKQLNKLSSLLNPVMIFAQVDKINTLLRKLSHNMNINHTLVLEDLLFSLVVDY | not soluble
MGSDKIHHHHHHMKLSPTAQPFLHLHNLFILHQKVLVVKPMKELFPGLKRFRAYLNTAGLGLMPLTVYQKVNEFLLDVINYEDGINAVEILDELYFNPMLKKAAKLMKTNPENITVSLQTTDGLKRILTSLTPKKGMKIVSFDLEFPTISAILKSYAKRHGLEVKVIGNKGGLYYMEDVERVIDDNTFAVVFSDVQWITGQRMPTKEIAGVAHEHGAWVIVDAVQSLGALEVYPEKMEVDALVAGGEKWLLNPNTGSGVMWISEELIEVSEPILGLLNTQPEVPWSEWWGDERKDVWDILPVRKDARKLDPGTPPYVSIVALDASLELINSVGIEKIEKHDMKLAKRVREYAYELGVTALGSSQITLLRLGVDYVKQREIVKNLEEKGIVVSLRGAKGIFGIRVSPHLYNTEDDIVTLFDELSKFF | not soluble
MGSDKIHHHHHHMFSYEKVQTLNQLELFVYKYVTSHLEECKTMTIRDLSTQSHVSSTTILRFLKKMGFEGFSDFKYVLRHRNDRTPASELSQDLGPIGQFLKQTATTEYTEKMEEVARVVAQSNTRLFFGMGSSGSMAQYGARILSNYGMLTLAITDPFQPQPISERDYSKTLIILLSVSGETEGVLTQANYYRQNGAKIVAITANSTSTLAQIADYSLTYDIPENKVGSLNFTSQIPVVYLLEQLGEKTSKLVYHPEISHEI | not soluble
MGHHHHHHSHMPLTSAFRAVDNDPGIIVWRIEKMELALVPVSAHGNFYEGDCYVILSTRRVASLLSQDIHFWIGKDSSQDEQSCAAIYTTQLDDYLGGSPVQHREVQYHESDTFRGYFKQGIIYKQGGVASGMKHVETNTYDVKRLLHVKGKRNIRATEVEMSWDSFNRGDVFLLDLGKVIIQWNGPESNSGERLKAMLLAKDIRDRERGGRAEIGVIEGDKEAASPELMKVLQDTLGRRSIIKPTVPDEIID | soluble
MGHHHHHHSHMSGTEEAILGGRDSHPAAGGGSVLCFGQCQYTAEEYQAIQKALRQRLGPEYISSRMAGGGQKVCYIEGHRVINLANEMFGYNGWAHSITQQNVGEYALQQWGLLHCPAPAESLLWVRR | soluble
MRGSHHHHHHTDPALRAMRLVQLSRHSIAFPSPEGALREPNGLLALGGDLSPARLLMAYQRGIFPWFSPGDPILWWSPDPRAVLWPESLHISRSMKRFHKRSPYRVTMNYAFGQVIEGCASDREEGTWITRGVVEAYHRLHELGHAHSIEVWREDELVGGMYGVAQGTLFCGESMFSRMENASKTALLVFCEEFIGHGGKLIDCQVLNDHTASLGACEIPRRDYLNYLNQMRLGRLPNNFWVPRCLFSPQEGLCGR | soluble
MPKIQNIVTVSSQEYRDAMSHFAGAVHIVTTNGIKGKRGVTISACCSLSDDPPTLLVCLMRHNLKNHLFIENGNFCVNSLAGKHRSLADIFSRRYNYTETECFDRAQWGTLQTGAPSLSDALASFDCRLICWHEHATHYILIGEVIAINRNQEKDALIYLNRGYHTLPL | not soluble
MIRKNKWLRFQTVCRYIPLSLKNHNRLVIFVCQRIEWRYIFSTNTGHPLKNTCEMTGTDFSTDGLMRRYVTGGNNQWHTVASLHMTIMMNRIGTVADRQPKARKVKHGEMTLEHHHHHH | not soluble
MADLRLEREFAVAPEALFAWVSDGAKLLQWWGPEGLHVPADQHDLDFTRLGPWFSVMVNGEGQRYKVSGQVTHVKPPQSVGFTWGWHDDDDRRGAESHVMFIVEPCAKGARLILDHRELGDDEMSLRHEEGWTSSLRKLAAELALEHHHHHH | soluble
MFSIFMRIPDTAQVDAVFSGAYASIEQGLCYDEVNDWENTLAMYEKGLNLIVEGEKMKNARKSEMWKMLQESKSSVQHRINVLKKEGPKQPTPKKIKEAEESVENEKEAIRMQLDSFGSQEADLIYFLPEGVQLFTIDGEKTTAPTAPTSLQILRFPQPTDGGASSDTLAFMQVGPWAYPLMGAKTPVLRNEFGAYLVANPTPENPNMTVAILLSSDIERRLIEELHIVLREFTDFKEQAEPSTELSKEEKNRISTTISNFLIKGGQKIAWGVETTTVRVISRVEDNGEQYRTTLIATDKPMQVSPVIKGSVVYMHKGTKTVAKCTRYLLDKIGDMGVSMGKKLADSAQRRFGDGKSGGLVSGTIEILGGGITGVATVWMSLEDGSRHLCRSIANQTVQNVKLKYGDDASDTTHHALFAAGHGTLAAAQLWDLGPRSVAGRMARKAGIQMVSDLHHSRKGSRLDQEVPALELKKAV | not soluble
MRKMMRQSLQAVLPEISGNKTSLLRKSVCSDLLTLFNSPHSALPSLLVSGMPEWQVHNPSDKHLQSWYCRQLRSALLFHEPRIAALQVNLKEAYCHTLAISLEIMLYHDDEPLTFDLVWDNGGWRSATLENVS | not soluble
MGSSHHHHHHSSGLVPRGSHMSELLATYLLTEPGADTEKKAEQIATGLTVGSWTDLPLVKQEQMQKHKGRVIKVEEREGTAASEKQAVITIAYPEINFSQDIPALLTTVFGKLSLDGKIKLIDLHFSEAFKRALPGPKFGVYGIRKLLGEFERPLLMSIFKGVIGRDLSDIKEQLRQQALGGVDLIKDDEIFFETGLAPFETRIAEGKQILKETYEQTGHKTLYAVNLTGRTADLKDKARRAAELGADALLFNVFAYGLDVMQGLAEDPEIPVPIMAHPAVSGAFTSSPFYGFSHALLLGKLNRYCGADFSLFPSPYGSVALPRADALAIHEECVREDAFNQTFAVPSAGIHPGMVPLLMRDFGIDHIINAGGGVHGHPNGAQGGGRAFRAIIDAVLEAQPIDEKAEQCKDLKLALDKWGKAEAV | soluble
MGSDKIHHHHHHLNQERFDYRTGILASPSEVDAAEWNALLAQQPQPTPFLRHEFLSALHATRCAVADTGWAPQFVTLTDPRTDKLVAAAPVYLKGHSYGEYVFDWAWADAYKRNGLPYYPKLLCAVPFTPVQGNRLLSADTHALRHLAATLMAFAEQADVSSLHVLFPTETEANALTEMGMMQREGVQFHWLNDGYRDFDDFLSTLEQKKRKNIRAERRKVHEAGVTMRRIRGEDIQDADWRFFSKCYRQTYREHFSSPYLNLDFFRMIGESMPENLLLVIAEYEGKPIASSLVVYQRDAKTGGTLYGRYWGALEHVPCLHFETAYYQPLEFCIEEKLGAFEGGAQGEHKMARGFLPTVTRSAHWLAHPAFADAVGHFLDNEKNSIHAYVDELREHNPFKG | not soluble
MSFFEQYRTGNLVLPNALFFHFKDIFPSADDFLVWQFLYLQTTTQIGEVASSQIAQATGKTPTEVNKSITTLTEAGLLDFTTVKVNNEIKMVVDASPALAVLDKLVSSENSTTGPVAGQPTNTQLIKQLTDELEQALGILNPMVIEDLNKEIQEEHTDPELIREALKEAVFNRKTNWNYIKGVLRNWKLSGITTKIQVEERRLEHQGKKQHHQVSDEFKTGMDAARQLWGGQ | not soluble
PQDAVIWLGAEKTGLKLTNSSNTFEGVIDGVDITVTKAQTSGETAIGLGIGADDEATKEQLNKFVDAYNTLISTIDEHTQIGSEDKKRGVLASDPTMRSIESQLSSLVRGEHGGMRLSEIGVTLDRHGKLKVDQEKFAEAQKNNSAGLEAMFNGDGALLDSMDAMAEPFLKFSSGAFKSRKEALQANLDRLSDKQTTLERKYDMSYKRYLKQFTQMNTLMTQMNQ | not soluble
MWPLLKNNVVRTGRRYAVFQPRRFTPRPQHDAFGTKDDVRGFTVFSHAACGASLMDPLSPSRWEVALFPSSPPSLKDSCHLCAWTFGLAGPCAAWLSTRRELVGGFSKIIYIQNSAECWSVRETKRCCRICRWRSTSSSTDLRSNPYPIRWCYCWTMFPPMYPVLLLTASPVPTPLEHHHHHH | not soluble
AVNEENIMIPKGVEVYEITGPYFFGIATKFEETMAQLGDRPNVRIIRMRKVPFIDSTGIHNLTTLCEMSQKEKITVILSGVNEKVYKVLEKSGFYELLGKENICPNFKIALDRAEEV | not soluble
MSDVEKKSETQEAAPKKKPYNLREKKEKKAAYRSLIRAELADELYDKILNIVVVQKKYKDPNYSAKDLAKELKTNTRYLSAVVNSRFGMNYSCLLNEYRIKDALHLLVDKRYMDKNVEEISAMVGFANRQSFYAAFYKNVGETPNGYRKRNQEKK | not soluble
MDRTRIVRRWRRNMDVADDAEYVEMLATLSEGSVRRNFNPYTDIDWESPEFAVTDNDPRWILPATDPLGRHPWYQAQSRERQIEIGMWRQANVAKVGLHFESILIRGLMNYTFWMPNGSPEYRYCLHESVEECNHTMMFQEMVNRVGADVPGLPRRLRWVSPLVPLVAGPLPVAFFIGVLAGEEPIDHTQKNVLREGKSLHPIMERVMSIHVAEEARHISFAHEYLRKRLPRLTRMQRFWISLYFPLTMRSLCNAIVVPPKAFWEEFDIPREVKKELFFGSPESRKWLCDMFADARMLAHDTGLMNPIARLVWRLCKIDGKPSRYRSEPQRQHLAAAPAA | not soluble
MVKKVLLINGPNLNLLGTREPEKYGTTSLSDIEQAAIEQAKLKNNDSEVLVFQSNTEGFIIDRIHEAKRQGVGFVVINAGAYTHTSVGIRDALLGTAIPFIEVHITNVHQREPFRHQSYLSDKAVAVICGLGVYGYTAAIEYALNY | soluble
MAHHHHHHSLTTDLPAAYHIEQRAHAFPWSEKTFASNQGERYLNFQLTQNGKMAAFAITQVVLDEATLFNIAVDPDYQRQGLGRALLEHLIDELEKRGVATLWLEVRASNAAAIALYESLGFNEATIRRNYYPTTDGREDAIIMALPISMEG | not soluble
MGSDKIHHHHHHMAHTITIVGLGNYGIDDLPLGIYKFLKTQDKVYARTLDHPVIESLQDELTFQSFDHVYEAHDQFEDVYNDIVAQLVEAANEKDIVYAVPGHPRVAETTTVKLLALAKDNTDIDVKVLGGKSFIDDVFEAVNVDPNDGFTLLDATSLQEVTLNVRTHTLITQVYSAMVAANLKITLMERYPDDYPVQIVTGARSDGADNVVTCPLYELDHDENAFNNLTSVFVPKIITSTYLYHDFDFATEVIDTLVDEDKGCPWDKVQTHETLKRYLLEETFELFEAIDNEDDWHMIEELGDILLQVLLHTSIGKKEGYIDIKEVITSLNAKMIRRHPHIFGDANAETIDDLKEIWSKAKDAEGKQPRVKFEKVFAEHFLNLYEKTKDKSFDEASLKQWLEKGESNT | not soluble
MFQIIMTSTPKYSIILPTYNEKENLPICIWLIENYLKEVSHEVIIVDDASPDGTQGIAKLLQKEYGDDKILIKPRVGKLGLGTAYSHGLSFARGEFIILMDADLSHHPKFIPEMIALQHKYKLDIVTGTRYKDGGGVSGWDLKRKTISKGANFLAQFLLNPGVSDLTGSFRLYKRDILSKLIAESVSKGYVFQMEMMFRAKKSGYRIGEVPISFVDRFFGESKLGSQEIVDYAKGLLYLFAFVW | not soluble
YEMSSVGVINLRNMYSTYDPTEVKGKINEGPPFSGSLFYKNIPYGNSSIELKVEMNSVEKANFFSGKRVDIFTLEYSPPSNSNIKKNSYGGITLSDGNRIDKKNIPVNIFIDGVQQKYSYTDISTVSTDKKEVTIQELDVKSRYYLQKHFNIYGFGDVKDFGRSSRFQSGFEEGNIIFHLNSGERISYNMFDTGHGDRESMLKKYSDNKTAYSDQLHIDIYLVKFNK | soluble
